The source of these data is patent US20100093076A1, “SOLUBLE IL-27 RECEPTOR” (priority 2006, published 2010).

The nature of data set [1]: Pharmacokinetics of soluble receptors in female C57B1/6 mice (serum ELISA, noncompartmental analysis). The class given is in vivo, mouse. The note with it: for AUCINF: extrapolated to infinity. On the procedure: Studies were performed to evaluate the pharmacokinetics of the mouse (IL-27RAm(mFc1)) and human (IL-27RA-Fc5) soluble receptors in female C57B1/6 mice.
Serum was generated from each sample and analyzed by a qualified enzyme-linked immunosorbant assay (ELISA). The resulting mean serum concentration versus time profiles were then subjected to noncompartmental pharmacokinetic analyses. The following pharmacokinetic parameters were calculated: C0 and Cmax (extrapolated concentration at time zero and maximum serum concentration, respectively), Tmax (time to achieve maximum concentration), t1/2 λz (terminal half-life), AUC0-t (area under the concentration versus time curve from time zero to the last measurable time point), AUCINF (area under the concentration versus time curve extrapolated to infinity), C1 or C1/F (clearance or clearance divided by bioavailable fraction, respectively), VSS or VZ/F (steady state volume of distribution or volume of distribution divided by the bioavailable fraction, respectively), and F (bioavailable fraction).

For data set [2], the target named is T1, single-chain mouse IL-27 (Mus musculus, UniProt O35228+Q8K3I6).
T1 sequence (O35228+Q8K3I6 with tags, fused parts or gaps): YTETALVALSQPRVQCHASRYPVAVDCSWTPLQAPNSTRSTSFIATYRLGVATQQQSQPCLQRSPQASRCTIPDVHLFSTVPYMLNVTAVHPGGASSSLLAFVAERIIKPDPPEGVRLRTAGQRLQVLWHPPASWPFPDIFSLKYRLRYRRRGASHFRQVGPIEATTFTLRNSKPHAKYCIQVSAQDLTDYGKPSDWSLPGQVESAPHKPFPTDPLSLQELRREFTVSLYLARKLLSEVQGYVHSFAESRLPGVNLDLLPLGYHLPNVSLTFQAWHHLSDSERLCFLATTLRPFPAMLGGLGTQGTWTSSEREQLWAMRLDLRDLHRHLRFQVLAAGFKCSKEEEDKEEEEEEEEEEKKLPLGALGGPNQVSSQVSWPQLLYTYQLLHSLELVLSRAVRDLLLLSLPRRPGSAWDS
The data set can be described thus: IL-27 inhibition of IL-2 production neutralized by IL-27RA Fc (third set of experiments). The class given is cell-based. The note with it: + IL-27 (10 ng/ml). Here is the method: Naïve mouse CD4 T-cells were isolated as described above. For testing of the neutralizing mAbs, the naïve CD4 T cells were preincubated for 30 minutes at 37 degrees C. with graded concentrations (60, 30, 15, 7.5, 3.75, 1.875.micro.g/ml) of either neutralizing rat anti-mouse IL27RA mAb (each mAb tested separately), rat IgG1 isotype control mAb, rat IgG2a isotype control mAb, or no mAb. […] The CD4 T cells (4×10^5/well) were then transferred to anti-CD3 coated tissue culture plates. Single-chain mouse IL-27 (10 ng/ml) was then added to the plates. Duplicate plates were set up for all experimental conditions. The plates were then cultured at 37 degrees for up to 72 hours.
For testing of the soluble receptor, single-chain mouse IL-27 (10 ng/ml) was preincubated for 30 minutes at 37 degrees C. with either IL27RAm(mFc1) (10.0 and 5.0.micro.g/ml), IL27RA-Fc5, mouse Fc1 protein (10.0 and 5.0.micro.g/ml), human Fc5 protein (10.0 and 5.0.micro.g/ml), or no recombinant protein in wells of the anti-CD3 coated plates. 4×10^5 CD4^+ CD62L high cells were added to the wells. Duplicate plates were set up for all experimental conditions. The plates were then cultured at 37 degrees for up to 72 hours. Cell supernatants were collected from one set of plates at 48 hours and from the duplicate set of plates at 72 hours. The supernatants were stored frozen at −80° C.

“And” between values parts separate entries of the source, which are not always exact repeats. Identical values can stand only once.

B1: IL-27RAm(mFc1): Extracellular domain of mouse IL27RA fused to a wild type BALB/c mouse gamma2a constant region Fc tag (protein)
chain: MNRLERVALARLETPRLEGLLELELESLEMSLELELEGTRPRHGSPRGPRLEQCYSVGPRLEGILENCSWGLPRLEGDLEGLTPRPRVLEYHQSQKYHPRNRVWGLVKVPRSKQSWVTIPRRGLQFTMADKLELEIWGTQKGRPRLEWSSVSVASNLEGLTQMKPRDTPRQIFSQVASPISGLGLATLEGLATVQWAPRPRVWPRPRQKALETCQFRYKGLCQAGLAWTRLEGLPRQLEKTDGLETPRVGLMQNLEGLPRGTCYQVSGRCQVGLNGYPRWGGLWSSPRLESFQTPRFLEDPRGLDVWVSGTVCGLTSGKRAALELEVWKDPRRPRCVQVTYTVWFGAGDITTTQGLGLVPRCCKSPRVPRAWMGLWAVVSPRGNSTSWVPRPRTNLESLEVCLEAPRGLSAPRCDVGVSSADGSPRGIKVTWKQGTARGSPRLEGLYVVASPWAQDGDSLEDKLENWTRLEPRPRGNLESTLELEPRGGLFKGGVPRYRITVTAVYSGGLEAAAPRSVWGFRGLGLLEVPRLEAGPRAVWRLEPRDDPRPRGTPRVVALAWGGLVPRRHQLERGQATHYTFCIQSRGLESTVCRNVSSQTQTATLEPRNLEHSGSFKLEWVTVSTVALAGQGPRPRGPRDLESLEHLEPRDNRIRWKALEPRWFLESLEWGLELELEMGCGLESLEASTRCLEQARCLEHWRHKLELEPRQWIWGLRVPRDPRANSNSGQPRYIKGLVSLEPRQPRPRKDGPRILEGLVGLGLVGLLEQPRVVGLSPRKASAPRIYSGYGLKHFLEPRTPRGLGLLEGLELEV
modifications: left off: a dimerising Fc or GST
notes: Extracellular domain of mouse IL27RA fused to a wild type BALB/c mouse gamma2a constant region Fc tag
As to B1, in data set [1] (IP, 100 μg), the AUC0-24 was found to be 98.2 µg·h/mL, the Cl/F amounted to 0.983 mL/h, the Tmax was 1 h and the “t1/2 λz (terminal half-life)” value turned out to be 5.17 h. The AUCINF in data set [1] (IP, 100 μg) was 102 µg·h/mL. The same molecule came in with a Cmax in data set [1] (IP, 100 μg, mouse serum) of 13200 ng/mL. In data set [1] (IV, 100 μg), the AUC0-24 worked out at 157 µg·h/mL, the Cl turned out to be 0.618 mL/h, the Vss stood at 3.05 mL and the “t1/2 λz (terminal half-life)” value was 5.25 h. For the same molecule, the AUCINF in data set [1] (IV, 100 μg) is 162 µg·h/mL. Further, the “Co (extrapolated concentration at time zero)” value in data set [1] (IV, 100 μg, mouse serum) was 36.2 µg/mL. Moreover, in data set [1] (SC, 100 μg), the AUC0-24 was found to be 56.5 µg·h/mL and the Tmax stood at 3 h. The molecule further gave a Cmax in data set [1] (SC, 100 μg, mouse serum) of 7950 ng/mL. Moreover, the “clearance compared to IL-27RA-Fc5” value in data set [1] (female C57B1/6 mice) was “more rapid clearance”. The IL-2 concentration in data set [2] (48 hr, protein conc. 5 (μg/ml; Fc controls in molar equiv.)) turned out to be 4021.15 pg/mL. Further, the IL-2 concentration in data set [2] (48 hr, protein conc. 10 (μg/ml; Fc controls in molar equiv.), listed as mIL-27RA) was 5215.59 pg/mL and 4922.26 pg/mL. Moreover, in data set [2] (72 hr, protein conc. 5 (μg/ml; Fc controls in molar equiv.)), the IL-2 concentration came to 5744.95 pg/mL. In addition, the IL-2 concentration in data set [2] (72 hr, protein conc. 10 (μg/ml; Fc controls in molar equiv.), listed as mIL-27RA) is 6704.62 pg/mL and 12186.7 pg/mL.
